Here are results for one molecule from patent publication US7166454 (dated 2007).

The test addresses T1, refolded processed β-secretase (BACE) (human, UniProt P56817 43-454, limits assumed).
T1 construct: The processed preparation is an equimolar mixture of two species, LRLPRE; It is C-terminally truncated and lacks the transmembrane domain; It is not glycosylated; also called mamapsin 2
As to the kind of experiment: X-ray structure coordinates of the complex.

Where no end group is shown, it is not given here.

T1 sequence (P56817 43-454 limits assumed): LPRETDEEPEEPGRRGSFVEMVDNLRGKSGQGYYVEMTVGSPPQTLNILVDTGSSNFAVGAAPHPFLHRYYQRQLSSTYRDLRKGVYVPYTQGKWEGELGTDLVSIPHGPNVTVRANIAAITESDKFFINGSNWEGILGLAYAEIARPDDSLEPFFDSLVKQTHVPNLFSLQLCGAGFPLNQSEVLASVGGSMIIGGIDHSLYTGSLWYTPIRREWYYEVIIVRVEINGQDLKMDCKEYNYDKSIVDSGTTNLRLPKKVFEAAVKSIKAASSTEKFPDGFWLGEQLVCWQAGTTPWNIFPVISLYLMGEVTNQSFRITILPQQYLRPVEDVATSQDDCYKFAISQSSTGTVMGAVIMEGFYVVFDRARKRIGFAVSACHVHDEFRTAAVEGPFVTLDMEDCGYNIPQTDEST

B1: OM-99-2 (peptide)
peptide: EVNLAAEF
modifications: also: L4-A5 as hydroxyethylene isostere (2R,4S,5S)-5-amino-4-hydroxy-2,7-dimethyl-octanoyl
notes: also called Bachem catalog # H-5108
B1: the binding result is listed as “binds”.
